This note sets out measurements from the Human Domainome abundance scans (Beltran et al. 2025).

± gives the uncertainty stated by the source.

B1: Double-stranded RNA-specific adenosine deaminase, residues 296 to 358; numbered along this chain, P55265 (parent)
chain: MAEIKEKICDYLFNVSDSSALNLAKNIGLTKARDINAVLIDMERQGDVYRQGTTPPIWHLTDK

The series covers variants of B1. Description: abundance fitness (aPCA) (normalised: wild type 0, dead -1); higher = more abundant; growth selection in yeast, the domain comes from the species named. The conditions noted are these: Homo sapiens.
Take MAEIKEKICDYLFNVSDSSALNLAYNIGLTKARDINAVLIDMERQGDVYRQGTTPPIWHLTDK [K25Y]: the abundance fitness is -0.626 ± 0.12.
As for MAEIKEKICDYLFNVSDSSALNLATNIGLTKARDINAVLIDMERQGDVYRQGTTPPIWHLTDK [K25T], the abundance fitness was -0.32 ± 0.058.
On to MAEIKEKICDYLFNVSDSSALNLAANIGLTKARDINAVLIDMERQGDVYRQGTTPPIWHLTDK [K25A], for which the abundance fitness is -0.213 ± 0.057.
Take MAEIKEKICDYLFNVSDSSALNLAINIGLTKARDINAVLIDMERQGDVYRQGTTPPIWHLTDK [K25I]: the abundance fitness is -0.578 ± 0.11.
On to MAEIKEKICDYLFNVSDSSALNLANNIGLTKARDINAVLIDMERQGDVYRQGTTPPIWHLTDK [K25N], for which the abundance fitness was -0.234 ± 0.07.
In the case of MAEIKEKICDYLFNVSDSSALNLASNIGLTKARDINAVLIDMERQGDVYRQGTTPPIWHLTDK [K25S] it was -0.542 ± 0.06; in that of MAEIKEKICDYLFNVSDSSALNLAKQIGLTKARDINAVLIDMERQGDVYRQGTTPPIWHLTDK [N26Q], 0.009 ± 0.087.
Regarding MAEIKEKICDYLFNVSDSSALNLAKCIGLTKARDINAVLIDMERQGDVYRQGTTPPIWHLTDK [N26C], the abundance fitness was -0.338 ± 0.082.
The value for MAEIKEKICDYLFNVSDSSALNLAKVIGLTKARDINAVLIDMERQGDVYRQGTTPPIWHLTDK [N26V] was 0.044 ± 0.047; that for MAEIKEKICDYLFNVSDSSALNLAKMIGLTKARDINAVLIDMERQGDVYRQGTTPPIWHLTDK [N26M] was -0.328 ± 0.07.
In the case of MAEIKEKICDYLFNVSDSSALNLAKEIGLTKARDINAVLIDMERQGDVYRQGTTPPIWHLTDK [N26E] it was 0.075 ± 0.089.
The value for MAEIKEKICDYLFNVSDSSALNLAKIIGLTKARDINAVLIDMERQGDVYRQGTTPPIWHLTDK [N26I] was -0.271 ± 0.063; that for MAEIKEKICDYLFNVSDSSALNLAKRIGLTKARDINAVLIDMERQGDVYRQGTTPPIWHLTDK [N26R] was -0.202 ± 0.047.
MAEIKEKICDYLFNVSDSSALNLAKKIGLTKARDINAVLIDMERQGDVYRQGTTPPIWHLTDK [N26K]: the abundance fitness was -0.057 ± 0.068.
In the case of MAEIKEKICDYLFNVSDSSALNLAKWIGLTKARDINAVLIDMERQGDVYRQGTTPPIWHLTDK [N26W] it was -0.327 ± 0.065.
Turning to MAEIKEKICDYLFNVSDSSALNLAKDIGLTKARDINAVLIDMERQGDVYRQGTTPPIWHLTDK [N26D], the abundance fitness was -0.539 ± 0.081.
In the case of MAEIKEKICDYLFNVSDSSALNLAKYIGLTKARDINAVLIDMERQGDVYRQGTTPPIWHLTDK [N26Y] it was -0.114 ± 0.077; in that of MAEIKEKICDYLFNVSDSSALNLAKPIGLTKARDINAVLIDMERQGDVYRQGTTPPIWHLTDK [N26P], -0.629 ± 0.085.
Consider MAEIKEKICDYLFNVSDSSALNLAKAIGLTKARDINAVLIDMERQGDVYRQGTTPPIWHLTDK [N26A], for which the abundance fitness stood at 0.189 ± 0.047.
As for MAEIKEKICDYLFNVSDSSALNLAKTIGLTKARDINAVLIDMERQGDVYRQGTTPPIWHLTDK [N26T], the abundance fitness is -0.403 ± 0.063.
For the variant MAEIKEKICDYLFNVSDSSALNLAKGIGLTKARDINAVLIDMERQGDVYRQGTTPPIWHLTDK [N26G], the abundance fitness was -0.001 ± 0.05.
Turning to MAEIKEKICDYLFNVSDSSALNLAKFIGLTKARDINAVLIDMERQGDVYRQGTTPPIWHLTDK [N26F], the abundance fitness is -0.328 ± 0.076.
MAEIKEKICDYLFNVSDSSALNLAKSIGLTKARDINAVLIDMERQGDVYRQGTTPPIWHLTDK [N26S]: the abundance fitness is -0.103 ± 0.048.
Consider MAEIKEKICDYLFNVSDSSALNLAKHIGLTKARDINAVLIDMERQGDVYRQGTTPPIWHLTDK [N26H], for which the abundance fitness was determined as 0.215 ± 0.057.
MAEIKEKICDYLFNVSDSSALNLAKLIGLTKARDINAVLIDMERQGDVYRQGTTPPIWHLTDK [N26L]: the abundance fitness is -0.429 ± 0.059.
On to MAEIKEKICDYLFNVSDSSALNLPKNIGLTKARDINAVLIDMERQGDVYRQGTTPPIWHLTDK [A24P], for which the abundance fitness was -0.49 ± 0.098.
Turning to MAEIKEKICDYLFNVSDSSALNLVKNIGLTKARDINAVLIDMERQGDVYRQGTTPPIWHLTDK [A24V], the abundance fitness is -0.58 ± 0.053.
Turning to MAEIKEKICDYLFNVSDSSALNLGKNIGLTKARDINAVLIDMERQGDVYRQGTTPPIWHLTDK [A24G], the abundance fitness is -0.495 ± 0.047.
Take MAEIKEKICDYLFNVSDSSALNLCKNIGLTKARDINAVLIDMERQGDVYRQGTTPPIWHLTDK [A24C]: the abundance fitness was -0.179 ± 0.079.
Turning to MAEIKEKICDYLFNVSDSSALNLRKNIGLTKARDINAVLIDMERQGDVYRQGTTPPIWHLTDK [A24R], the abundance fitness is -0.544 ± 0.058.
The value for MAEIKEKICDYLFNVSDSSALNLHKNIGLTKARDINAVLIDMERQGDVYRQGTTPPIWHLTDK [A24H] was -0.488 ± 0.092.
In the case of MAEIKEKICDYLFNVSDSSALNLYKNIGLTKARDINAVLIDMERQGDVYRQGTTPPIWHLTDK [A24Y] it was -0.406 ± 0.1; in that of MAEIKEKICDYLFNVSDSSALNLWKNIGLTKARDINAVLIDMERQGDVYRQGTTPPIWHLTDK [A24W], -0.707 ± 0.088.
On to MAEIKEKICDYLFNVSDSSALNLDKNIGLTKARDINAVLIDMERQGDVYRQGTTPPIWHLTDK [A24D], for which the abundance fitness was -0.838 ± 0.13.
In the case of MAEIKEKICDYLFNVSDSSALNLKKNIGLTKARDINAVLIDMERQGDVYRQGTTPPIWHLTDK [A24K], the abundance fitness is -0.616 ± 0.14.
Turning to MAEIKEKICDYLFNVSDSSALNLIKNIGLTKARDINAVLIDMERQGDVYRQGTTPPIWHLTDK [A24I], the abundance fitness was -0.552 ± 0.094.
In the case of MAEIKEKICDYLFNVSDSSALNLEKNIGLTKARDINAVLIDMERQGDVYRQGTTPPIWHLTDK [A24E] it was -0.447 ± 0.082; in that of MAEIKEKICDYLFNVSDSSALNLLKNIGLTKARDINAVLIDMERQGDVYRQGTTPPIWHLTDK [A24L], -0.513 ± 0.073; in that of MAEIKEKICDYLFNVSDSSALNLMKNIGLTKARDINAVLIDMERQGDVYRQGTTPPIWHLTDK [A24M], -0.418 ± 0.088.
The value for MAEIKEKICDYLFNVSDSSALNLFKNIGLTKARDINAVLIDMERQGDVYRQGTTPPIWHLTDK [A24F] was -0.566 ± 0.086; that for MAEIKEKICDYLFNVSDSSALNLQKNIGLTKARDINAVLIDMERQGDVYRQGTTPPIWHLTDK [A24Q] was -0.171 ± 0.1.
MAEIKEKICDYLFNVSDSSALNLTKNIGLTKARDINAVLIDMERQGDVYRQGTTPPIWHLTDK [A24T]: the abundance fitness was -0.276 ± 0.077.
In the case of MAEIKEKICDYLFNVSDSSALNLNKNIGLTKARDINAVLIDMERQGDVYRQGTTPPIWHLTDK [A24N] it was -0.722 ± 0.13.
